From publication PMC11698036, “Borg5 restricts contractility and motility in epithelial MDCK cells” (Journal of Cell Science, 2024)

T1: His–Borg5 (recombinant mouse Borg5, Cdc42EP1) (mouse, UniProt Q91W92 1-409)
T1 construct: Borg5 (Cdc42EP1), mouse cDNA (Borg5–Myc cDNA of Vong et al., 2010), PCR-cloned into pet28a+; All recombinant Borg5 constructs were based on mouse Borg5–Myc cDNA; Runs at 50 kDa on the His blot; also called His-tagged Borg5; source: E. coli BL21(DE3), purified (boiled, 8 M urea, Ni-NTA agarose; also purified under native conditions)
T1 sequence (looked up): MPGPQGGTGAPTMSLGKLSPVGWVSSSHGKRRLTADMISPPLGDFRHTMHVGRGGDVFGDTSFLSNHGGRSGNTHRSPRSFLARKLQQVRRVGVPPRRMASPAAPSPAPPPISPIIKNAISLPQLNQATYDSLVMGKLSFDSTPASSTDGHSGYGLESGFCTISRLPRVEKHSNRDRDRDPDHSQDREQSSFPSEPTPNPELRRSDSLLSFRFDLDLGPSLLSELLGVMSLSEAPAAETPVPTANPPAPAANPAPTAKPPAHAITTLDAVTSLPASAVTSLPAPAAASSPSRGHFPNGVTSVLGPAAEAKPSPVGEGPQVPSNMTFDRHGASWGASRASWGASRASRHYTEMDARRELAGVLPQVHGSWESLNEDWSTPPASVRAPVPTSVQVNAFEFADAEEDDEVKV


Tests used:
[1] = biological target: T1, His–Borg5 (recombinant mouse Borg5, …); test: pull-down; three-way assay: His–MyoIIA-Rod pre-incubated with His–Borg5, then bound to His–SEPT2/6/7/9–Strep immobilised on Strep-Tactin Sepharose; septin buffer (300 mM KCl), 4°C; biotin elution; His blot; four experiments; settings: both partners purified
[2] = biological target: T1, His–Borg5 (recombinant mouse Borg5, …); test: pull-down; three-way assay: His–Borg5 pre-incubated with septin 9-6-7-2 complexes, then bound to GST–MyoIIA-Rod immobilised on glutathione resin; septin buffer (300 mM KCl), 4°C; Coomassie gel and His blot; two experiments; settings: both partners purified

Borg5–SEPT binding with His-MyoIIRod, relative to that without MyoIIRod [1] | His–Borg5 binding to Myo–GST with SEPT complexes, relative to that without septins (experiment 1) [2] | His–Borg5 binding to Myo–GST with SEPT complexes, relative to that without septins (experiment 2) [2] | Binder
0.57 fraction of that without MyoIIRod |  |  | His-tagged rod domain of myosin IIA (His–MyoIIA-Rod) (domain or fragment, UniProt P35579 1339-1960, looked up, Myosin IIA heavy chain (MYH9), rod domain, amino acids 1339–1960, in pet28a; Construct provided by Anne Bresnick; also called His-MyoIIRod; His-MyoRod; source: E. coli BL21(DE3), purified (Mg-ATP step, nickel agarose)) NSFREQLEEEEEAKHNLEKQIATLHAQVADMKKKMEDSVGCLETAEEVKRKLQKDLEGLSQRHEEKVAAYDKLEKTKTRLQQELDDLLVDLDHQRQSACNLEKKQKKFDQLLAEEKTISAKYAEERDRAEAEAREKETKALSLARALEEAMEQKAELERLNKQFRTEMEDLMSSKDDVGKSVHELEKSKRALEQQVEEMKTQLEELEDELQATEDAKLRLEVNLQAMKAQFERDLQGRDEQSEEKKKQLVRQVREMEAELEDERKQRSMAVAARKKLEMDLKDLEAHIDSANKNRDEAIKQLRKLQAQMKDCMRELDDTRASREEILAQAKENEKKLKSMEAEMIQLQEELAAAERAKRQAQQERDELADEIANSSGKGALALEEKRRLEARIAQLEEELEEEQGNTELINDRLKKANLQIDQINTDLNLERSHAQKNENARQQLERQNKELKVKLQEMEGTVKSKYKASITALEAKIAQLEEQLDNETKERQAACKQVRRTEKKLKDVLLQVDDERRNAEQYKDQADKASTRLKQLKRQLEEAEEEAQRANASRRKLQRELEDATETADAMNREVSSLKNKLRRGDLPFVVPRRMARKGAGDGSDEEVDGKADGAEAKPAE
 | 0.6 fraction of that observed without septins present | 0.3 fraction of that observed without septins present | septin 9–septin 6–septin 7–septin 2 complex (His–SEPT2/6/7/9–Strep) (complex, Prepared according to Castro-Linares et al. (2022); Tag ends are read from the plasmid names; As I recall, these Addgene plasmids hold mouse SEPT2 and human SEPT6, SEPT7 and SEPT9_i1; also called septin 9-6-7-2; SEPT complexes; source: E. coli BL21(DE3), co-expressed, purified (nickel agarose, then Strep-Tactin Sepharose); not shown: 6xHis, N-terminal, kept; Strep tag, C-terminal, kept; copies: + …) chain 1: MSKQQPTQFINPETPGYVGFANLPNQVHRKSVKKGFEFTLMVVGESGLGKSTLINSLFLTDLYPERIIPGAAEKIERTVQIEASTVEIEERGVKLRLTVVDTPGYGDAINCRDCFKTIISYIDEQFERYLHDESGLNRRHIIDNRVHCCFYFISPFGHGLKPLDVAFMKAIHNKVNIVPVIAKADTLTLKERERLKKRILDEIEEHSIKIYHLPDAESDEDEDFKEQTRLLKASIPFSVVGSNQLIEAKGKKVRGRLYPWGVVEVENPEHNDFLKLRTMLITHMQDLQEVTQDLHYENFRSERLKRGGRKVENEDMNKDQILLEKEAELRRMQEMIARMQAQMQMQMQGGDSDSGALGQHV chain 2: MAATDIARQVGEGCRTVPLAGHVGFDSLPDQLVNKSVSQGFCFNILCVGETGLGKSTLMDTLFNTKFEGEPATHTQPGVQLQSNTYDLQESNVRLKLTIVSTVGFGDQINKEDSYKPIVEFIDAQFEAYLQEELKIRRVLHTYHDSRIHVCLYFIAPTGHSLKSLDLVTMKKLDSKVNIIPIIAKADAISKSELTKFKIKITSELVSNGVQIYQFPTDDESVAEINGTMNAHLPFAVIGSTEELKIGNKMMRARQYPWGTVQVENEAHCDFVKLREMLIRVNMEDLREQTHTRHYELYRRCKLEEMGFKDTDPDSKPFSLQETYEAKRNEFLGELQKKEEEMRQMFVQRVKEKEAELKEAEKELHEKFDRLKKLHQDEKKKLEDKKKSLDDEVNAFKQRKTAAELLQSQGSQAGGSQTLKRDKEKKNNPWLCTE chain 3: MSVSARSAAAEERSVNSSTMVAQQKNLEGYVGFANLPNQVYRKSVKRGFEFTLMVVGESGLGKSTLINSLFLTDLYSPEYPGPSHRIKKTVQVEQSKVLIKEGGVQLLLTIVDTPGFGDAVDNSNCWQPVIDYIDSKFEDYLNAESRVNRRQMPDNRVQCCLYFIAPSGHGLKPLDIEFMKRLHEKVNIIPLIAKADTLTPEECQQFKKQIMKEIQEHKIKIYEFPETDDEEENKLVKKIKDRLPLAVVGSNTIIEVNGKRVRGRQYPWGVAEVENGEHCDFTILRNMLIRTHMQDLKDVTNNVHYENYRSRKLAAVTYNGVDNNKNKGQLTKSPLAQMEEERREHVAKMKKMEMEMEQVFEMKVKEKVQKLKDSEAELQRRHEQMKKNLEAQHKELEEKRRQFEDEKANWEAQQRILEQQNSSRTLEKNKKKGKIF chain 4: MKKSYSGGTRTSSGRLRRLGDSSGPALKRSFEVEEVETPNSTPPRRVQTPLLRATVASSTQKFQDLGVKNSEPSARHVDSLSQRSPKASLRRVELSGPKAAEPVSRRTELSIDISSKQVENAGAIGPSRFGLKRAEVLGHKTPEPAPRRTEITIVKPQESAHRRMEPPASKVPEVPTAPATDAAPKRVEIQMPKPAEAPTAPSPAQTLENSEPAPVSQLQSRLEPKPQPPVAEATPRSQEATEAAPSCVGDMADTPRDAGLKQAPASRNEKAPVDFGYVGIDSILEQMRRKAMKQGFEFNIMVVGQSGLGKSTLINTLFKSKISRKSVQPTSEERIPKTIEIKSITHDIEEKGVRMKLTVIDTPGFGDHINNENCWQPIMKFINDQYEKYLQEEVNINRKKRIPDTRVHCCLYFIPATGHSLRPLDIEFMKRLSKVVNIVPVIAKADTLTLEERVHFKQRITADLLSNGIDVYPQKEFDEDSEDRLVNEKFREMIPFAVVGSDHEYQVNGKRILGRKTKWGTIEVENTTHCEFAYLRDLLIRTHMQNIKDITSSIHFEAYRVKRLNEGSSAMANGMEEKEPEAPEM
